Laboratory results: patent US20250076311A1 (Chugai, published 2025)
Where a chain is given by its changes, count along the chain named. Numbers in names are those of the source.

Key:
[1] = molecular target: T1, human FcγRIIaH extracellular domain, His-tagged (human, UniProt P12318 34-217); assay: SPR (Biacore), 25C, FcgR bound per antibody captured
T1 construct: also called human FcgRIIaH; FcγRIIa type H
T1 sequence: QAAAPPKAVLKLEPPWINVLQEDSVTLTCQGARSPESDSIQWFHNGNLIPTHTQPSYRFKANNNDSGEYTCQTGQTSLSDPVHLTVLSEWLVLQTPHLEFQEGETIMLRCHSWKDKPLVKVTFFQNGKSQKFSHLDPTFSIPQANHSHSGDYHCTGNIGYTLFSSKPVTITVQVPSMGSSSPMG

[2] = molecular target: T2, human FcγRIIb extracellular domain, His-tagged (human, UniProt P31994 43-217); assay: as above
T2 construct: also called human FcgRIIb
T2 sequence: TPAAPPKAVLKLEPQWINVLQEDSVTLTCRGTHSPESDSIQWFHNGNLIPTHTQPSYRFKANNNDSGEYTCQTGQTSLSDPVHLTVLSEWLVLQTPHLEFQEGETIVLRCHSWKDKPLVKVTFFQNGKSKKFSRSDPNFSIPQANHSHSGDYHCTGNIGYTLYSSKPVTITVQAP

[3] = molecular target: T3, human FcγRIIIaV extracellular domain, His-tagged (human, UniProt P08637 17-208); assay: as above
T3 construct: also called human FcgRIIIaV
T3 sequence (P08637 17-208 F176V): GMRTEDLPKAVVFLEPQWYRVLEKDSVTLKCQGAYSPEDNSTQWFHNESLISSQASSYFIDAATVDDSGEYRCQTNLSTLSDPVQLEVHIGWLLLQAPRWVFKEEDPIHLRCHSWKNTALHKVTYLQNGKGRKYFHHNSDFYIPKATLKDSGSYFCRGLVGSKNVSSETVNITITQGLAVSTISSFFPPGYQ

[4] = molecular target: T4, cynomolgus monkey FcγRIIIaS extracellular domain with C-terminal His-tag (cynomolgus monkey, UniProt A3RFZ7 21-206 (rhesus entry)); assay: SPR (BIACORE); KD of SG1 / KD of variant
T4 construct: also called cyno FcgRIIIaS; cynoFcγRIIIaS; not shown: His-tag added to the C-terminus
Protocol: The kinetic analysis of interactions between these antibodies and FcγR was carried out using BIACORE® T200 or BIACORE® 4000 (GE Healthcare). HBS-EP+ (GE Healthcare) was used as the running buffer, and the measurement temperature was set to 25° C. […] After the measurement, the antibody captured on the chip was washed off by allowing reaction with 10 mM glycine-HCl, pH1.5 and 25 mM NaOH so that the chip was regenerated and used repeatedly. The sensorgrams obtained as measurement results were analyzed by the 1:1 Langmuir binding model using the BIACORE® Evaluation Software to calculate the binding rate constant ka (L/mol/s) and dissociation rate constant kd (1/s), and the dissociation constant KD (mol/L) was calculated from these values. […] Regarding such interactions, KD values were calculated using the following 1:1 binding model described in BIACORE® T100 Software Handbook BR1006-48 Edition AE.
Target sequence in this assay (A3RFZ7 21-206): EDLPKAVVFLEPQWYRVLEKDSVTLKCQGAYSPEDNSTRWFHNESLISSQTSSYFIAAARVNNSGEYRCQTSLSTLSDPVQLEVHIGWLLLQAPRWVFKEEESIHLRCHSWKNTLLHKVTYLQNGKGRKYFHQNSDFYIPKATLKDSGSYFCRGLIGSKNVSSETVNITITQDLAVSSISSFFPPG

[5] = molecular target: T4, cynomolgus monkey FcγRIIIaS …; assay: SPR (BIACORE), antibody captured, FcgR analyte
T4 sequence (A3RFZ7 21-206): as above

[6] = molecular target: T5, cynomolgus monkey FcγRIIa3 extracellular domain with C-terminal His-tag (cynomolgus monkey); assay: SPR (BIACORE), antibody captured, FcgR analyte
T5 construct: also called cyno FcgRIIa3; cynoFcγRIIa3; not shown: His-tag added to the C-terminus
T5 chain: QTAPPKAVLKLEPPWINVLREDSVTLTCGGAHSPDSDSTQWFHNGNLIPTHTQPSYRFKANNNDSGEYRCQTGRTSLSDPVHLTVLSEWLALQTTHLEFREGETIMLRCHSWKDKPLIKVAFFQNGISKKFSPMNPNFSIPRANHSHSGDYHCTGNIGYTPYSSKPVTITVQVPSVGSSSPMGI

[7] = molecular target: T6, human FcγRIIaH extracellular domain with C-terminal His-tag (human, UniProt P12318 34-217); assay: SPR (BIACORE), antibody captured, FcgR analyte
T6 construct: also called human FcgRIIaH; FcγRIIa type H; not shown: His-tag added to the C-terminus
T6 sequence: T1 sequence

[8] = molecular target: T7, cynomolgus monkey FcγRIIa2 extracellular domain with C-terminal His-tag (cynomolgus monkey); assay: SPR Biacore, antibody captured, FcgR analyte
T7 construct: also called cyno FcgRIIa2; cynoFcγRIIa2; not shown: His-tag added to C-terminus
T7 chain: T5 chain with I127K, K130N, P133H, R142Q

[9] = molecular target: T8, cynomolgus monkey FcγRIIIaS extracellular domain with C-terminal His-tag (cynomolgus monkey, UniProt A3RFZ7 21-206 (rhesus entry)); assay: SPR Biacore, antibody captured, FcgR analyte
T8 construct: also called cyno FcgRIIIaS; cynoFcγRIIIaS; not shown: His-tag added to C-terminus

[10] = molecular target: T9, human FcγRIIaR extracellular domain with C-terminal His-tag (human, UniProt P12318 34-217); assay: SPR (BIACORE), antibody captured, FcgR analyte
T9 construct: also called human FcgRIIaR; FcγRIIa type R; not shown: His-tag added to the C-terminus
T9 chain: T1 sequence with H134R

[11] = molecular target: T10, cynomolgus monkey FcγRIIb extracellular domain with C-terminal His-tag (cynomolgus monkey); assay: SPR Biacore, antibody captured, FcgR analyte
T10 construct: also called cyno FcgRIIb; cynoFcγRIIb; not shown: His-tag added to C-terminus
T10 chain: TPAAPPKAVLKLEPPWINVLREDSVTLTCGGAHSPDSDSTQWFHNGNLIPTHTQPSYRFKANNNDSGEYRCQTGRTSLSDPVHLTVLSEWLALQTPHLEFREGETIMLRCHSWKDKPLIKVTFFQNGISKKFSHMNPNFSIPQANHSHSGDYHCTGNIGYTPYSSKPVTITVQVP

[12] = molecular target: T11, cynomolgus monkey FcγRIIa3 extracellular domain with C-terminal His-tag (cynomolgus monkey); assay: SPR Biacore, antibody captured, FcgR analyte
T11 construct: also called cyno FcgRIIa3; cynoFcγRIIa3; not shown: His-tag added to C-terminus
T11 chain: T5 chain

[13] = molecular target: T12, human FcγRIIb extracellular domain with C-terminal His-tag (human, UniProt P31994 43-217); assay: SPR Biacore, antibody captured, FcgR analyte
T12 construct: also called human FcgRIIb; not shown: His-tag added to C-terminus
T12 sequence: T2 sequence

B1: GpH7-B3 N325F / GpL16-k0 (antibody, human IgG1, kappa)
heavy: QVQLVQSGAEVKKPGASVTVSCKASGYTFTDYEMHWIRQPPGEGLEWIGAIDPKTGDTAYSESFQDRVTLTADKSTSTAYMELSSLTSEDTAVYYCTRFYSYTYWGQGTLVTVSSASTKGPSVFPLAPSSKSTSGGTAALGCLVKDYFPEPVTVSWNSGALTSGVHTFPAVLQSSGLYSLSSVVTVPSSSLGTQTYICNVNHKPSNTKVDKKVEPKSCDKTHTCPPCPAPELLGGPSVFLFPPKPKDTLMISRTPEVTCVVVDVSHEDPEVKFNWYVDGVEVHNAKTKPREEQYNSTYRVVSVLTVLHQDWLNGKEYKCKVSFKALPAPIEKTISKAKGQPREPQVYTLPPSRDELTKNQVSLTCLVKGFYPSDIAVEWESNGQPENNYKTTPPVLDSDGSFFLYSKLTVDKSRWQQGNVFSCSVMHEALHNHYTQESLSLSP
light: DIVMTQSPLSLPVTPGEPASISCQASESLVHSNRNTYLHWYLQKPGQSPQLLIYKVSNRFSGVPDRFSGSGSGTDFTLKISRVEAEDVGVYYCSQNTHVPPTFGQGTKVEIERTVAAPSVFIFPPSDEQLKSGTASVVCLLNNFYPREAKVQWKVDNALQSGNSQESVTEQDSKDSTYSLSSTLTLSKADYEKHKVYACEVTHQGLSSPVTKSFNRGEC
notes: also called B3 variant N325F
Which results are given for B1?
Binding to human FcgRs (parent B3 = 100) [1]: 65; Binding to human FcgRs (parent B3 = 100) [2]: 72; Binding to human FcgRs (parent B3 = 100) [3]: -1

B2: GpH7-B3 P238Y / GpL16-k0 (antibody, human IgG1, kappa)
heavy: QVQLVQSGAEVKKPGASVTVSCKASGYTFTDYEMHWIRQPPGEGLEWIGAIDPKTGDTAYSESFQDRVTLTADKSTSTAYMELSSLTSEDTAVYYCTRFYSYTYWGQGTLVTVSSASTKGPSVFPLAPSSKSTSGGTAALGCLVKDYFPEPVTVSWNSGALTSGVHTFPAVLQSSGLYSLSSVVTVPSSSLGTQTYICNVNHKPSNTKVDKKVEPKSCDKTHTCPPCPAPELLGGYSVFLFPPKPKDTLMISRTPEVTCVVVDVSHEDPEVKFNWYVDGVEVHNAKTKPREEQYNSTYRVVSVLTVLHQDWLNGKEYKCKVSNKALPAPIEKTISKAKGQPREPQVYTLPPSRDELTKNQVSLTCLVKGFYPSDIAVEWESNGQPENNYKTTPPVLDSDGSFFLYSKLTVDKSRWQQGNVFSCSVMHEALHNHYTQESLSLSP
light: B1 light
notes: also called B3 variant P238Y
With B2 as the binder, how does the “Binding to human FcgRs (parent B3 = 100)” value [1] read?
The value was 93.

And the “Binding to human FcgRs (parent B3 = 100)” value [2]?
The value was 114.

What about the “Binding to human FcgRs (parent B3 = 100)” value [3] of the same binder?
The value was 3.

B3: GpH7-B3 V266F / GpL16-k0 (antibody, human IgG1, kappa)
heavy: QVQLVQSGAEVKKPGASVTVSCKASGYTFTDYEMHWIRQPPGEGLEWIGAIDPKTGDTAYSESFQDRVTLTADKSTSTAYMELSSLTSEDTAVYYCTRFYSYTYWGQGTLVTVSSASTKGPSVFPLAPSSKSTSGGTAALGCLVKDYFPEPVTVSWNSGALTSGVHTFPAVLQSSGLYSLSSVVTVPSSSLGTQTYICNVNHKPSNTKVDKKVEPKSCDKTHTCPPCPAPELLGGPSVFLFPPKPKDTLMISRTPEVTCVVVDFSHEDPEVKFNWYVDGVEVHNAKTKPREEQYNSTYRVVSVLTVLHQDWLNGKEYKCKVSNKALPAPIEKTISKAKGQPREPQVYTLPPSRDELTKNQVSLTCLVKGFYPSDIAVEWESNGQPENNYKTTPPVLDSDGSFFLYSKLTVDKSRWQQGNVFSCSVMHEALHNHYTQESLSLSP
light: B1 light
notes: also called B3 variant V266F
How did the “Binding to human FcgRs (parent B3 = 100)” value [2] turn out when B3 was run?
Its value is 88.

And the “Binding to human FcgRs (parent B3 = 100)” value [3]?
Its value is 2.

B4: GpH7-B3 S239P / GpL16-k0 (antibody, human IgG1, kappa)
heavy: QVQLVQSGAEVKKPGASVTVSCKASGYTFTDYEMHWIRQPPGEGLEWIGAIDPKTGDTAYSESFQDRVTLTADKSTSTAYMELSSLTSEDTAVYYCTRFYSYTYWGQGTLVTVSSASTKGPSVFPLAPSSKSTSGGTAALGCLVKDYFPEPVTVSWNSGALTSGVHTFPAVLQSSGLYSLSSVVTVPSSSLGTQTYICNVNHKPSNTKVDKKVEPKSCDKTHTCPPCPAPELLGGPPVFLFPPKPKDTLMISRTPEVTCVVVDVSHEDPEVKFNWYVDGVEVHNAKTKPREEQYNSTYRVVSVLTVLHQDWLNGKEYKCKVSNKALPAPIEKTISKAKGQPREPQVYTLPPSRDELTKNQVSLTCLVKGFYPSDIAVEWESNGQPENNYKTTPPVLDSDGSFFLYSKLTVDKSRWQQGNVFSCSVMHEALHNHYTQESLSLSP
light: B1 light
notes: also called B3 variant S239P
What does the source list for B4?
Binding to human FcgRs (parent B3 = 100) [1]: 49; Binding to human FcgRs (parent B3 = 100) [2]: 61; Binding to human FcgRs (parent B3 = 100) [3]: -1

B5: M103205H795-MY197/M103202L889-SK1 (antibody, human IgG1, kappa, name in EU numbering)
heavy: QVTLKESGPVLVKPTETLTLTCTVSGIDLSHDDISWVRQAPGKGLEWVGIISYAGSTYYASWAKGRLTISKDTSKNQVVLTMTNMDPVDTATYYCARGVPAYSHGGDLWGQGTLVTVSSASTKGPSVFPLAPSSKSTSGGTAALGCLVKDYFPEPVTVSWNSGALTSGVHTFPAVLQSSGLYSLSSVVTVPSSSLGTQTYICNVNHKPSNTKVDKKVEPKSCDKTHTCPPCPAPELLNGPSVFLFPPKPKDTLMISRTPEVTCVVVDVSDEDPEVKFNWYVDGVEVHNAKTKPREEQYNSTYRVVSVLTVLHQDWLNGKEYKCKVSNKALPKPIEKTISKAKGQPREPQVYTLPPSREEMTKNQVSLTCLVKGFYPSDIAVEWESNGQPENNYKTTPMVLDSDGSFFLYSKLTVDKSRWQQGNVFSCSVMHEALHNHYTQKSLSLSP
light: DIVMTQSPATLSLSPGERATLSCTSSQSVYHANWLSWFQQKPGQPPKLLIYWASTLAYGVPSRFSGSGSGTDFTLTISSLQPEDAATYYCAGGYGGGRYAFGQGTKVEIKRTVAAPSVFIFPPSDEQLKSGTASVVCLLNNFYPREAKVQWKVDNALQSGNSQESVTEQDSKDSTYSLSSTLTLSKADYEKHKVYACEVTHQGLSSPVTKSFNRGEC
notes: Fc variant of MS1032LO06-SG1; positions in EU numbering
With B5 as the binder, how does the “KD fold (SG1 = 1)” value [4] read?
Its value is 0.17 fold.

What about the Kd [5] of the same binder?
Its Kd is 2100 nM.

And the Kd [6]?
The Kd was 1400 nM.

And the Kd [7]?
The Kd was 160 nM.

B6: M103205H795-MY207/M103202L889-SK1 (antibody, human IgG1, kappa, name in EU numbering)
heavy: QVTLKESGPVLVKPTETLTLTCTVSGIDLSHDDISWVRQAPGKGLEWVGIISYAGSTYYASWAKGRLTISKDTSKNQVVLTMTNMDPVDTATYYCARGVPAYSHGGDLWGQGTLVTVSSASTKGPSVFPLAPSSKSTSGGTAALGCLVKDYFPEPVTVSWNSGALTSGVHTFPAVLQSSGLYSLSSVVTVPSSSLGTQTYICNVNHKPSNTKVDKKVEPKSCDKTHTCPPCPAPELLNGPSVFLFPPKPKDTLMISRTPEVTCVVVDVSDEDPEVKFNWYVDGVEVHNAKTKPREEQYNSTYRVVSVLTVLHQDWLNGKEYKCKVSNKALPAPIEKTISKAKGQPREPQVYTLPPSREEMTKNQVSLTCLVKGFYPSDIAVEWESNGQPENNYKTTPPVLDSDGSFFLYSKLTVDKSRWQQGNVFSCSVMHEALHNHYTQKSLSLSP
light: B5 light
notes: substitutions in EU numbering, introduced into M103205H795-SG1
B6 was tested. Which “KD fold (SG1 = 1)” value [8] did it give?
Its value is 3.6 fold.

What about the “KD fold (SG1 = 1)” value [9] of the same binder?
Its value is 0.09 fold.

B7: M103205H795-MY202/M103202L889-SK1 (antibody, human IgG1, kappa, name in EU numbering)
heavy: B5 heavy with S241V, M398P
light: B5 light
notes: as for B5
Which results are given for B7?
Kd [5]: 4000 nM; Kd [6]: 2200 nM; Kd [7]: 1200 nM

B8: M103205H795-MY434/M103202L889-SK1 (antibody, human IgG1, kappa, name in EU numbering)
heavy: B5 heavy with L237W, M398P
light: B5 light
notes: as for B5
B8 was tested. Which Kd [5] did it give?
Its Kd is 11000 nM.

And the Kd [10]?
Its Kd is 19 nM.

And the Kd [6]?
Its Kd is 6400 nM.

And the Kd [7]?
Its Kd is 1600 nM.

B9: M103205H795-MY350/M103202L889-SK1 (antibody, human IgG1, kappa, name in EU numbering)
heavy: B5 heavy with L237W, D270E
light: B5 light
notes: as for B6
B9 was tested. Which “KD fold (SG1 = 1)” value [11] did it give?
The value was 3.2 fold.

What about the “KD fold (SG1 = 1)” value [9] of the same binder?
The value was 0.05 fold.

B10: M103205H795-MY204/M103202L889-SK1 (antibody, human IgG1, kappa, name in EU numbering)
heavy: B5 heavy with S241V, D270E, Q297L, M398P
light: B5 light
notes: as for B6
Which “KD fold (SG1 = 1)” value [11] does the source give for B10 here?
The value was 2.2 fold.

And the “KD fold (SG1 = 1)” value [12]?
The value was 3.3 fold.

And the “KD fold (SG1 = 1)” value [9]?
The value was 0.1 fold.

B11: M103205H795-MY288/M103202L889-SK1 (antibody, human IgG1, kappa, name in EU numbering)
heavy: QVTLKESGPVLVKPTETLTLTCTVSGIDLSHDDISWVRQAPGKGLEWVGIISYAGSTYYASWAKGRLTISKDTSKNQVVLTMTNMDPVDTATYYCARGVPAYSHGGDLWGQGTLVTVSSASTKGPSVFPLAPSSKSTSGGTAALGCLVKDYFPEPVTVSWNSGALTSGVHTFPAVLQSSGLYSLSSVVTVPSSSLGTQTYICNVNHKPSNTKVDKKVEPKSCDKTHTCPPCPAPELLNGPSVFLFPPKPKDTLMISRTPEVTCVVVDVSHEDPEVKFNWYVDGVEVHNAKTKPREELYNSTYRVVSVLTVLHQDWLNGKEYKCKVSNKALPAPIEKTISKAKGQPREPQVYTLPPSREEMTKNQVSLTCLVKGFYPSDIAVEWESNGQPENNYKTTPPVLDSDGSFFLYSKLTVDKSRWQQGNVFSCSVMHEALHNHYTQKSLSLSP
light: B5 light
notes: as for B6
Which results are given for B11?
KD fold (SG1 = 1) [13]: 0.5 fold; KD fold (SG1 = 1) [11]: 1.5 fold; KD fold (SG1 = 1) [12]: 1.5 fold; KD fold (SG1 = 1) [9]: 0.03 fold
